Each block holds one binder with its values, some of them ahead of it.
Experiments:
[1] = biological target: T1, HLA-A01.01 class I MHC molecule (prepared complex) (human); assay: dissociation of peptide-MHC-I complex at 37 C, 125I-labelled b2m, scintillation; settings: remark: other sources report otherwise
[2] = biological target: T2, HLA-A02.01 class I MHC molecule (prepared complex) (human); assay: as above; settings: remark: other sources report otherwise
[3] = biological target: T1, HLA-A01.01 class I MHC molecule …; assay: displacement of radiolabeled reference peptide from class I MHC, gel filtration; 'Affinity (nM)'; settings: remark: other sources report otherwise
[4] = biological target: T2, HLA-A02.01 class I MHC molecule …; assay: as above; settings: remark: other sources report otherwise
HLA-B08.01 (human) = assay: competition with radiolabeled reference peptide, purified MHC I
[5] = biological target: T3, HLA-B07.02 class I MHC molecule (prepared complex) (human); assay: dissociation of peptide-MHC-I complex at 37 C, 125I-labelled b2m, scintillation; settings: remark: other sources report otherwise
[6] = biological target: T3, HLA-B07.02 class I MHC molecule …; assay: displacement of radiolabeled reference peptide from class I MHC, gel filtration; 'Affinity (nM)'; settings: remark: other sources report otherwise
[7] = biological target: HLA class I molecule A02.01; assay: pMHC-I dissociation half-life, 125I-b2m; settings: remark: other sources report otherwise
[8] = biological target: HLA class I molecule B08.01; assay: pMHC-I dissociation half-life, 125I-b2m; settings: remark: other sources report otherwise
[9] = biological target: HLA class I molecule A02.01; assay: competition with radiolabeled reference peptide on purified MHC I; settings: remark: other sources report otherwise
[10] = biological target: HLA class I molecule B08.01; assay: as above; settings: remark: other sources report otherwise
HLA-A02.01 (human) [11] = assay: competition with radiolabeled reference peptide, purified MHC I; settings: remark: other sources report otherwise
HLA-A03.01 (human) = assay: as above; settings: remark: other sources report otherwise
HLA-A01.01 (human) [12] = assay: competition vs radiolabeled reference peptide on purified MHC I, gel filtration; settings: remark: other sources report otherwise
[13] = biological target: HLA class I molecule A24.02; assay: pMHC-I dissociation half-life, 125I-b2m; settings: remark: other sources report otherwise
[14] = biological target: HLA class I molecule B07.02; assay: pMHC-I dissociation half-life, 125I-b2m; settings: remark: other sources report otherwise
[15] = biological target: HLA class I molecule A24.02; assay: competition with radiolabeled reference peptide on purified MHC I; settings: remark: other sources report otherwise
[16] = biological target: HLA class I molecule B07.02; assay: as above; settings: remark: other sources report otherwise
HLA-A01.01 (human) [17] = assay: pMHC-I dissociation half-life, 125I-b2m; settings: remark: other sources report otherwise
HLA-A02.01 (human) [18] = assay: pMHC-I dissociation half-life, 125I-b2m; settings: remark: other sources report otherwise
HLA-A01.01 (human) [19] = assay: competition with radiolabeled reference peptide, purified MHC I; settings: remark: other sources report otherwise
HLA-B07.02 (human) [20] = assay: pMHC-I dissociation half-life, 125I-b2m; settings: remark: other sources report otherwise
HLA-B07.02 (human) [21] = assay: competition with radiolabeled reference peptide, purified MHC I; settings: remark: other sources report otherwise
[22] = biological target: T4, HLA-A24.02 class I MHC molecule (prepared complex) (human); assay: dissociation of peptide-MHC-I complex at 37 C, 125I-labelled b2m, scintillation; settings: remark: other sources report otherwise
[23] = biological target: T4, HLA-A24.02 class I MHC molecule …; assay: displacement of radiolabeled reference peptide from class I MHC, gel filtration; 'Affinity (nM)'; settings: remark: other sources report otherwise
[24] = biological target: HLA-A02:01 class I MHC molecule (human); assay: pMHC-I dissociation at 37 C, 125I-labeled b2m, scintillation counts; settings: remark: other sources report otherwise
[25] = biological target: HLA-B07:02 class I MHC molecule (human); assay: as above; settings: remark: other sources report otherwise
[26] = biological target: HLA-A02:01 class I MHC molecule (human); assay: competition with a radiolabeled reference peptide for purified MHC I, gel filtration; 'Affinity (nM)'; settings: remark: other sources report otherwise
HLA-A01.01 (human) [27] = assay: pMHC-I complex dissociation at 37 C, 125I-b2m, half-life; settings: remark: other sources report otherwise
HLA-A02.01 (human) [28] = assay: as above; settings: remark: other sources report otherwise
HLA-A02.01 (human) [29] = assay: competition vs radiolabeled reference peptide on purified MHC I, gel filtration; settings: remark: other sources report otherwise
[30] = biological target: HLA-B07:02 class I MHC molecule (human); assay: competition with a radiolabeled reference peptide for purified MHC I, gel filtration; 'Affinity (nM)'; settings: remark: other sources report otherwise

Binder: LKKLRSPL
IC50 (HLA-B08.01 (human)): 0.0006 µM

Binder: YLGNHMNIA
Stability (T1/2 (h)) [7]: 0.6 h
Stability (T1/2 (h)) [8]: 0 h
IC50 [9]: 0.117 µM
IC50 [10]: 0.872 µM

Binder: LTSTVQLIM [EGFR, T790M peptide …]
Stability (half-life (hr.)) [1]: 6.22 min
IC50 [3]: 2.89 µM

Binder: LTSTVQLIM
IC50 (HLA-A01.01 (human) [12]): 2.89 µM

Binder: SLMPAHWSI
Stability (T1/2 (h)) [7]: 5 h
Stability (T1/2 (h)) [13]: 0.4 h
Stability (T1/2 (h)) [14]: 0 h
Stability (T1/2 (h)) [8]: 0 h
IC50 [9]: 0.048 µM
IC50 [15]: 0.633 µM

Binder: LSLMPAHWSI
Stability (T1/2 (h)) [7]: 0.4 h
Stability (T1/2 (h)) [13]: 0 h
Stability (T1/2 (h)) [8]: 0 h
IC50 [9]: 0.164 µM
IC50 [15]: 12.4 µM

Binder: YVMAYVMAGV
Stability (T1/2 (h)) [7]: 20.9 h
Stability (T1/2 (h)) [14]: 0 h
Stability (T1/2 (h)) [8]: 0 h
IC50 [9]: 0.057 µM
IC50 [16]: 52.6 µM

Binder: MQLMPFGCLL
Stability (half-life (hr.)) [2]: 22.9 min
Stability (half-life (hr.)) [22]: 0 h
IC50 [4]: 0.0163 µM
IC50 [23]: 18.9 µM

Binder: MLTDSLFLPI
Stability (T1/2 (h)) (HLA-A01.01 (human) [17]): 0 h
Stability (T1/2 (h)) (HLA-A02.01 (human) [18]): 1 h
IC50 (HLA-A01.01 (human) [19]): 7.67 µM

Binder: VQLIMQLMPF
Stability (half-life (hr.)) [2]: 0 min
Stability (half-life (hr.)) [22]: 0 h
IC50 [4]: 4.94 µM
IC50 [23]: 4.1 µM

Binder: SLGNHLCPL
Stability (T1/2 (h)) [7]: 3.5 h
Stability (T1/2 (h)) [14]: 0 h
Stability (T1/2 (h)) [8]: 0.5 h
IC50 [16]: 2.59 µM
IC50 [10]: 0.006 µM

Binder: IMQLMPFGCL
Stability (half-life (hr.)) [2]: 30.9 min
Stability (half-life (hr.)) [22]: 0 h
IC50 [4]: 0.653 µM
IC50 [23]: 14.1 µM

Binder: MANGSLLNYL
Stability (half-life (hr.)) [24]: 0 min
Stability (half-life (hr.)) [25]: 0 h
IC50 [26]: 1.01 µM

Binder: SQIMSLWGL
Stability (T1/2 (h)) [7]: 1 h
Stability (T1/2 (h)) [13]: 0 h
Stability (T1/2 (h)) [8]: 0 h
IC50 [9]: 0.062 µM
IC50 [15]: 8.52 µM

Binder: SLLNYLREM
Stability (half-life (hr.)) [24]: 183 min
Stability (half-life (hr.)) [25]: 0 h
IC50 [26]: 0.0677 µM
IC50 [30]: 0.866 µM

Binder: YMANGSLLN
Stability (half-life (hr.)) [24]: 0 min
IC50 [26]: 4 µM

Results, then the binder that gave them:

Stability (half-life (hr.)) [1]: 0 min
Stability (half-life (hr.)) [2]: 0 min
IC50 [3]: 8.28 µM
IC50 [4]: 0.537 µM
Binder: CLTSTVQLIM [EGFR_T790M peptide …, listing 1 of 2 here]

Stability (half-life (hr.)) [2]: 22.1 min
Stability (half-life (hr.)) [5]: 0 h
IC50 [4]: 0.116 µM
IC50 [6]: 1.59 µM
Binder: MQLMPFGCL

IC50 (HLA-A02.01 (human) [11]): 2.51 µM
IC50 (HLA-A03.01 (human)): 0.117 µM
Binder: MLLRLNLRKM

Stability (T1/2 (h)) (HLA-A01.01 (human) [17]): 0 h
Stability (T1/2 (h)) (HLA-A02.01 (human) [18]): 0.4 h
IC50 (HLA-A01.01 (human) [19]): 14.4 µM
IC50 (HLA-A02.01 (human) [11]): 0.04 µM
Binder: WMTETLFDIV

Stability (T1/2 (h)) (HLA-B07.02 (human) [20]): 5.5 h
IC50 (HLA-B07.02 (human) [21]): 0.008 µM
Binder: LPRKPTRAA

Stability (T1/2 (h)) [7]: 0 h
Stability (T1/2 (h)) [8]: 0 h
IC50 [9]: 0.225 µM
IC50 [10]: 3.18 µM
Binder: FELLSTPPL

Stability (T1/2 (h)) [7]: 2.5 h
Stability (T1/2 (h)) [14]: 0 h
Stability (T1/2 (h)) [8]: 1.2 h
IC50 [9]: 11.5 µM
IC50 [16]: 0.17 µM
Binder: YVMAYVMAG

Stability (T1/2 (h)) (HLA-A01.01 (human) [27]): 0 h
Stability (T1/2 (h)) (HLA-A02.01 (human) [28]): 0 h
IC50 (HLA-A02.01 (human) [29]): 0.716 µM
Binder: CLTSTVQLIM […, listing 2 of 2 here]
